Experimental data taken from US20030088075A1 (Kyowa Kirin, published 2003).

Assays:
[1] = molecular target: T1, soluble human VEGF receptor KDR 7N (human, UniProt P35968 20-757); experiment: enzyme immunoassay, antigen coated at 10 µg/ml
T1 construct: range 20-757; Purity 70 to 80%; not shown: two amino acid residues derived from a linker
From the text: Next, in order to examine binding specificity of anti-human VEGF receptor Flt-1 human CDR-grafted antibodies KM8550, KM8551, KM8552, KM8553, KM8554 and KM8555 and anti-human VEGF receptor Flt-1 human chimeric antibody KM2550, their reactivity for five soluble human VEGF receptor derivative proteins Flt-1 7N, Flt-1 3N, Flt-1 2N (WO 98/22616), Flt-1 7N.K2 [2(6-5) of Example 2] and KDR 7N [2(6-5) of Example 2] was examined using an enzyme immunoassay. Concentration of each soluble human VEGF receptor derivative protein to be adsorbed on a 96 well plate for EIA was fixed to 10 μg/ml (3-fold dilution), and the antibody concentration was fixed to 5 μg/ml.

[2] = molecular target: T2, human VEGF receptor Flt-1 expressed on cells (human, UniProt P17948 27-1338); experiment: purified antibody; inhibition of 125I-VEGF binding to NIH3T3-Flt-1 cells
T2 construct: whole, on cells; also called NIH3T3-Flt-1; human VEGF receptor Flt-1 expression cells
T2 sequence (P17948 27-1338): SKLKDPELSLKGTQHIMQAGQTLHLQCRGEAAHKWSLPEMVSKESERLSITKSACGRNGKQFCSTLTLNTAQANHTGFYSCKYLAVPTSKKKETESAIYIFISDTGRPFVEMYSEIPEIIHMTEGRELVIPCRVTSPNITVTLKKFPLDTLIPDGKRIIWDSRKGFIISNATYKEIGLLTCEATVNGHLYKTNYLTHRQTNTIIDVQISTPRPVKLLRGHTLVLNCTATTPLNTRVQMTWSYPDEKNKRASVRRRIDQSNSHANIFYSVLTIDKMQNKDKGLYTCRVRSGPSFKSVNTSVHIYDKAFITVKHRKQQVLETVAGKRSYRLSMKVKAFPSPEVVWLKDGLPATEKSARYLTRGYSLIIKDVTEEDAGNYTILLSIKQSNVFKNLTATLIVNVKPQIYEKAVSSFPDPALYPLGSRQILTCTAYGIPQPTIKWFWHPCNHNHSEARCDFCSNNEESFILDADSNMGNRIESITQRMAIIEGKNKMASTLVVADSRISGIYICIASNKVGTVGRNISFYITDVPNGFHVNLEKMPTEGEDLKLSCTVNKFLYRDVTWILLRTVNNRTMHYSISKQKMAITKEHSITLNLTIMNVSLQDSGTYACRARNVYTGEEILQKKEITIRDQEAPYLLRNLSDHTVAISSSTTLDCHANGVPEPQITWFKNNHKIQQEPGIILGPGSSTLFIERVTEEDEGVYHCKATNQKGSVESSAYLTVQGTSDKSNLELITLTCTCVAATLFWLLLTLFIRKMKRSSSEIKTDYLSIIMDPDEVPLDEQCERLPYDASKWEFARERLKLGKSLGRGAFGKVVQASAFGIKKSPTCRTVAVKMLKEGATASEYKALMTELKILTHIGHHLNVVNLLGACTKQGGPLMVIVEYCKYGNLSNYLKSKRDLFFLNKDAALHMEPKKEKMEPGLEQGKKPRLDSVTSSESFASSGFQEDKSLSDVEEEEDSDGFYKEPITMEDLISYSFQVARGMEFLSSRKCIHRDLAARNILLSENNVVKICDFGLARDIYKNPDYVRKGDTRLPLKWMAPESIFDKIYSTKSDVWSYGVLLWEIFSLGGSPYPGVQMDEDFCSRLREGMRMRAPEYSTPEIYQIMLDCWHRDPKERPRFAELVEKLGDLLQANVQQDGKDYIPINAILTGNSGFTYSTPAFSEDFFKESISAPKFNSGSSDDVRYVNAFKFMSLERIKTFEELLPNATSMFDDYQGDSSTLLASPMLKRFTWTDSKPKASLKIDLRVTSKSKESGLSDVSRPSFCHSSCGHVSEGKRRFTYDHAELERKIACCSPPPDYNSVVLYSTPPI
Method: PBS containing 1% bovine serum albumin (BSA) was dispensed in 100 μl portions into wells of a 96 well MultiScreen-HV Plate (manufactured by Millipore), the reaction was carried out at room temperature for 1 hour to block the active groups in the wells and then NIH3T3-Flt-1 cells suspended in 1% BSA-PBS containing 0.05% NaN₃ were dispensed in 5×10⁴ cells/well portions. After washing with 1% BSA-PBS, a purified monoclonal antibody (0.01 to 7.29 μg/ml) was dispensed in 50 μl/well portions and then 3 ng/ml of ¹²⁵I-labeled human VEGF (manufactured by Amersham) was dispensed in 50 μl/well portions and the reaction was carried out under cooling for 2 hours. After washing with PBS, the wells were dried at 50° C., and Microscinti-0 (manufactured by Packard) was dispensed in 30 μl/well portions to measure the radioactivity of the ¹²⁵I-labeled human VEGF linked to each well using Top Count (manufactured by Packard).

[3] = molecular target: T1, soluble human VEGF receptor KDR 7N; experiment: ELISA, antigen coated at 4 µg/ml
Method: First, the reactivity of anti-human VEGF receptor Fit-i mouse monoclonal antibodies KM1732 and KM1750 and anti-human VEGF receptor Flt-1 human chimeric antibodies KM2532 and KM2550 was compared using an immunoassay method. Each of Flt-1 7N, Flt-1 3N, Flt-1 2N, Flt-1 7N.K2 and KDR 7N diluted to 4 μg/ml with PBS was dispensed in 50 μl portions into wells of a 96 well plate for EIA (manufactured by Greiner) and allowed to stand overnight at 4° C. for its adsorption. After washing the plate with PBS, 100 μl of 1% BSA-PBS was added to each well, and the remaining active groups was blocked by carrying out the reaction at room temperature for 1 hour. After discarding 1% BSA-PBS, each of the purified anti-human VEGF receptor Flt-1 mouse monoclonal antibodies KM1732 and KM1750 or purified anti-human VEGF receptor Flt-1 human chimeric antibodies KM2532 and KM2550, having a concentration of from 0.1 μg/ml, was dispensed in 50 μl portions into the resulting wells to carry out the reaction at room temperature for 1 hour.

[4] = molecular target: T3, soluble human VEGF receptor Flt-1 7N (human, UniProt P17948 27-750); experiment: hybridoma culture supernatant; inhibition of 125I-VEGF (3 ng/ml) binding to coated Flt-1 7N
T3 construct: range 1-750; Secreted from baculovirus-infected High Five insect cells and purified on heparin-Sepharose; also called Flt 7N; soluble human Flt-1 7N
T3 sequence (P17948 27-750 limits assumed, form in doubt): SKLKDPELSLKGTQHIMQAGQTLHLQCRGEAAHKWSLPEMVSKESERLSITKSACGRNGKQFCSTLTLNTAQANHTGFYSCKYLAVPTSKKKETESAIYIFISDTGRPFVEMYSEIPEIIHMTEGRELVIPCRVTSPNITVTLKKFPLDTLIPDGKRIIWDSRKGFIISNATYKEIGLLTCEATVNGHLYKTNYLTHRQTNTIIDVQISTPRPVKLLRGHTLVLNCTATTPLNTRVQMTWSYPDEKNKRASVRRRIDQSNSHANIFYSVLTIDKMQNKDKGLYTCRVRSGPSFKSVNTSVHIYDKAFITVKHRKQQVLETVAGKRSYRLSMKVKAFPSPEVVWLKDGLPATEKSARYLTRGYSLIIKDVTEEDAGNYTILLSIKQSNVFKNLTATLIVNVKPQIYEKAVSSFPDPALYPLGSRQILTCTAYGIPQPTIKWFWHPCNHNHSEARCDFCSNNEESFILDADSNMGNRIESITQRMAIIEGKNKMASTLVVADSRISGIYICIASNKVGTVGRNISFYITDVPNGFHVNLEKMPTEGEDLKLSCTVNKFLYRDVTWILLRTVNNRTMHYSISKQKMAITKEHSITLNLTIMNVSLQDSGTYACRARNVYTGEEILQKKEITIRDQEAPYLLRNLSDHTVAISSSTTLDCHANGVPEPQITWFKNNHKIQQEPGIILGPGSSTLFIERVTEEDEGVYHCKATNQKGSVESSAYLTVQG
Method: (§1) Methanol was dispensed in 100 μl portions into wells of a 96 well MultiScreen-IP Plate (manufactured by Millipore) to give hydrophilic nature to the PVDF membrane on the bottom of the plate. After washing with water, the soluble human VEGF receptor Flt-1 7N diluted with PBS to a concentration of 1.6 μg/ml was dispensed in 50 μl/well portions and then allowed to stand overnight at 4° C. for its adsorption. After washing, PBS containing 1% bovine serum albumin (BSA) is dispensed in 50 μl/well portions and the reaction was carried out at room temperature for 1 hour to block the remained active groups. After washing with PBS, each hybridoma culture supernatant or a purified monoclonal antibody diluted with 1% BSA-PBS containing 0.5 M NaCl (0.01 to 7.29 μg/ml) was dispensed in 50 μl/well portions and then 3 ng/ml of ¹²⁵I-labeled human VEGF (manufactured by Amersham) was dispensed in 50 μl/well portions, subsequently carrying out the reaction at room temperature for 1.5 hours. After washing with 0 05% Tween-PBS, the wells were dried at 50° C., and Microscinti-0 (manufactured by Packard) was dispensed in 30 μl/well portions to measure the radioactivity of the ¹²⁵I-labeled human VEGF linked to each well using Top Count (manufactured by Packard).

[5] = molecular target: T3, soluble human VEGF receptor Flt-1 7N; experiment: purified antibody; inhibition of 125I-VEGF binding to coated Flt-1 7N
Method: as §1

T1 sequence (P35968 20-757): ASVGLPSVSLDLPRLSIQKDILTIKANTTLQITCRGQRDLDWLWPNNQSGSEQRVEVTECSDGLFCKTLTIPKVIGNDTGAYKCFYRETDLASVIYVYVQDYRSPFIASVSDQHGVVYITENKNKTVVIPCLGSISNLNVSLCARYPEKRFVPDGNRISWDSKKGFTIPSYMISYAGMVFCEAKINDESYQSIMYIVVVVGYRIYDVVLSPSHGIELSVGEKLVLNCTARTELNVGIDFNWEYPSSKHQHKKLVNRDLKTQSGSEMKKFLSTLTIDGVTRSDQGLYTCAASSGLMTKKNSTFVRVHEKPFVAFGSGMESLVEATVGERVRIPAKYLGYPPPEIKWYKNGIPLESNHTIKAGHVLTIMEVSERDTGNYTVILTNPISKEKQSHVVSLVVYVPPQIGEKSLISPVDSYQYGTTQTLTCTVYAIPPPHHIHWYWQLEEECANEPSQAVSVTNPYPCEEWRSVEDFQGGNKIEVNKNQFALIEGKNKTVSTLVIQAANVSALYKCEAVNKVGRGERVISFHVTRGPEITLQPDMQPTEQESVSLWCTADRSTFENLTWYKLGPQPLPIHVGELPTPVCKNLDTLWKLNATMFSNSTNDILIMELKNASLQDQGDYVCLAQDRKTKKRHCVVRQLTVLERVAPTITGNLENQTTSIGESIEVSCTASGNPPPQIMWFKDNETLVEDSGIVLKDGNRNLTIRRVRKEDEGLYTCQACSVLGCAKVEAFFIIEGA

Row | Binder | binding result [1] | binding result [3] | also measured
1 | anti-human VEGF receptor Flt-1 human CDR-grafted antibody KM8550 (antibody, V domains shown, also called pKANTEX1750HV0LV0(I)) VH: QVQLVQSGAEVKKPGASVKVSCKASGYTFINYNMHWVRQAPGQGLEWMGAIFPGNGFTSYNQKFKGRVTITVDKSTSTAYMELSSLRSEDTAVYYCARDGDYYFDYWGQGTLVTVSS VL: DIQMTQSPSSLSASVGDRVTITCSASSSVSYMHWYQQKPGKAPKLLIYRTSNLASGVPSRFSGSGSGTDFTLTISSLQPEDFATYYCHQWSMYTFGQGTKVEIK | no binding (tested: 5 µg/ml antibody) |  | 
2 | anti-human VEGF receptor Flt-1 human CDR-grafted antibody KM8551 (antibody, V domains shown, also called pKANTEX1750HV0LV0(IV)) VH: QVQLVQSGAEVKKPGASVKVSCKASGYTFINYNMHWVRQAPGQGLEWMGAIFPGNGFTSYNQKFKGRVTITVDKSTSTAYMELSSLRSEDTAVYYCARDGDYYFDYWGQGTLVTVSS VL: DIVMTQSPDSLAVSLGERATINCSASSSVSYMHWYQQKPGQPPKLLIYRTSNLASGVPDRFSGSGSGTDFTLTISSLQAEDVAVYYCHQWSMYTFGQGTKVEIK | no binding (tested: 5 µg/ml antibody) |  | 
3 | anti-human VEGF receptor Flt-1 mouse monoclonal antibody KM1750 (antibody, mouse IgG2b, V domains shown, mouse IgG2b; hybridoma FERM BP-5700; Used labeled with biotin on HUVEC; also called biotinated KM1750) VH: QAFLQQSGAELVRPGASVKMSCKASGYTFINYNMHWVKQTPRQGLEWIGAIFPGNGFTSYNQKFKGKATLTVDKSSSTVYMQLRSLTSEDSAVYFCARDGDYYFDYWGQGTTLTVSS VL: QIVLTQSPAIMSASLGEEITLTCSASSSVSYMHWYQQKSGTSPKLLIYRTSNLASGVPFRFSGSGSGTFYSLTISSVEAEDAADYYCHQWSMYTFGGGTKLEIK |  | no binding (tested: 0.1 µg/ml antibody) | IC50 [2]: 0.041 µg/mL; inhibition ratio [4]: 66.3%; IC50 [5]: 2 µg/mL
4 | anti-human VEGF receptor Flt-1 human chimeric antibody KM2550 (antibody, V domains shown, V regions of KM1750 joined to the human antibody C regions of vector pKANTEX93; IgG type; also called p42550 [sic]) VH: QAFLQQSGAELVRPGASVKMSCKASGYTFINYNMHWVKQTPRQGLEWIGAIFPGNGFTSYNQKFKGKATLTVDKSSSTVYMQLRSLTSEDSAVYFCARDGDYYFDYWGQGTTLTVSS VL: QIVLTQSPAIMSASLGEEITLTCSASSSVSYMHWYQQKSGTSPKLLIYRTSNLASGVPFRFSGSGSGTFYSLTISSVEAEDAADYYCHQWSMYTFGGGTKLEIK |  | no binding (tested: 0.1 µg/ml antibody) | 
5 | anti-human VEGF receptor Flt-1 mouse monoclonal antibody KM1732 (antibody, mouse IgG1, V domains shown, mouse IgG1; hybridoma FERM BP-5698) VH: QGQMQQSGAELVKPGASVKLSCKPSGFTFSSNYISWLKQKPGQSLEWIAWIYAGTGDASYNQKFTAKAHVTVDTSSSTAYMQLSSLTTEDSAIYYCARHGGDGYWFAYWGQGTLVTVSA VL: QLVLTQSPAIMSASQGEKVTMTCSASSSVSYMHWYQQKSGTSPKRWIYDTSKLPSGVPARFSGSGSGTSYSLTISSMEAEDAATYYCQQWSSNPPTFGAGTKLELK |  | no binding (tested: 0.1 µg/ml antibody) | IC50 [2]: 0.05 µg/mL; inhibition ratio [4]: 83.1%; IC50 [5]: 1.1 µg/mL

Continued, in another order:

Row | binding result [1] | binding result [3] | Binder | also measured
6 | no binding (tested: 5 µg/ml antibody) |  | anti-human VEGF receptor Flt-1 human CDR-grafted antibody KM8552 (antibody, V domains shown, also called pKANTEX1750HV3LV0(I)) VH: QVQLVQSGAEVKKPGASVKVSCKASGYTFINYNMHWVRQAPGQGLEWMGAIFPGNGFTSYNQKFKGRVTITVDKSTSTAYMQLRSLRSEDTAVYFCARDGDYYFDYWGQGTLVTVSS VL: DIQMTQSPSSLSASVGDRVTITCSASSSVSYMHWYQQKPGKAPKLLIYRTSNLASGVPSRFSGSGSGTDFTLTISSLQPEDFATYYCHQWSMYTFGQGTKVEIK | 
7 | no binding (tested: 5 µg/ml antibody) |  | anti-human VEGF receptor Flt-1 human CDR-grafted antibody KM8553 (antibody, V domains shown, also called pKANTEX1750HV3LV0(IV)) VH: QVQLVQSGAEVKKPGASVKVSCKASGYTFINYNMHWVRQAPGQGLEWMGAIFPGNGFTSYNQKFKGRVTITVDKSTSTAYMQLRSLRSEDTAVYFCARDGDYYFDYWGQGTLVTVSS VL: DIVMTQSPDSLAVSLGERATINCSASSSVSYMHWYQQKPGQPPKLLIYRTSNLASGVPDRFSGSGSGTDFTLTISSLQAEDVAVYYCHQWSMYTFGQGTKVEIK | 
8 | no binding (tested: 5 µg/ml antibody) |  | anti-human VEGF receptor Flt-1 human CDR-grafted antibody KM8554 (antibody, V domains shown, also called pKANTEX1750HV0LV4) VH: QVQLVQSGAEVKKPGASVKVSCKASGYTFINYNMHWVRQAPGQGLEWMGAIFPGNGFTSYNQKFKGRVTITVDKSTSTAYMELSSLRSEDTAVYYCARDGDYYFDYWGQGTLVTVSS VL: DIQMTQSPSSLSASVGEEVTITCSASSSVSYMHWYQQKPGKAPKLLIYRTSNLASGVPSRFSGSGSGTFYTLTISSLQPEDFATYYCHQWSMYTFGQGTKVEIK | 
9 | no binding (tested: 5 µg/ml antibody) |  | anti-human VEGF receptor Flt-1 human CDR-grafted antibody KM8555 (antibody, V domains shown, also called pKANTEX1750HV3LV4) VH: QVQLVQSGAEVKKPGASVKVSCKASGYTFINYNMHWVRQAPGQGLEWMGAIFPGNGFTSYNQKFKGRVTITVDKSTSTAYMQLRSLRSEDTAVYFCARDGDYYFDYWGQGTLVTVSS VL: DIQMTQSPSSLSASVGEEVTITCSASSSVSYMHWYQQKPGKAPKLLIYRTSNLASGVPSRFSGSGSGTFYTLTISSLQPEDFATYYCHQWSMYTFGQGTKVEIK | 
10 |  | no binding (tested: 0.1 µg/ml antibody) | anti-human VEGF receptor Flt-1 human chimeric antibody KM2532 (antibody, V domains shown, V regions of KM1732 joined to the human antibody C regions of vector pKANTEX93 (WO 97/10354); IgG type of about 150 kDa; Expressed in YB2/0 cells; also called p42532 [sic]) VH: QGQMQQSGAELVKPGASVKLSCKPSGFTFSSNYISWLKQKPGQSLEWIAWIYAGTGDASYNQKFTAKAHVTVDTSSSTAYMQLSSLTTEDSAIYYCARHGGDGYWFAYWGQGTLVTVSA VL: QLVLTQSPAIMSASQGEKVTMTCSASSSVSYMHWYQQKSGTSPKRWIYDTSKLPSGVPARFSGSGSGTSYSLTISSMEAEDAATYYCQQWSSNPPTFGAGTKLELK | 
